Source: patent US20230235299

Molecular target: N,N-dimethylated casein

B1: 3×HA-6His tag fusion transglutaminase (AO090023000250 of Aspergillus oryzae with a C-terminal 3×HA-6His tag) (protein)
chain: MAEETQVLSIQQRIAALNQAQVGQSPQAAASPLLGAQPTPFASRPAPSRQQTINNPPVNSHDSLGDRNEPTGAQPKPVPRPPPIPVQKPRAPPPLPARKASTESAPALPPRRPSGFSRKESRESLGSDVSHSTSTSAGRATIASTTSNNSDTIRSVRAPAWGAKLPPLPPKRQDTKTVQPPPRPRPSPANSSRSLSQGRPSLPPRRESTNSTSTNGNRSTSRPPPPLPSRINSDKSPGPSADTNGKQSTRKLPPPPPSSAALEKIQSSGLAGINRNTENSGKGTNGSVQEPQPNGVPPPVPRATRPDVDLAKLQATKPRLCKTTHSATAPSTMCLKCRDFSAPDAHAAQYPRESLPSYDLAWLARELTAPFPSPTDKARALFTWFHHNIEYDVHSFFNKCVKPSTPAGTLASGLAVCEGYASLFATLATHAGLEAVVVAGHGKGYGYDAPAPGSPIPPVSATGHAWSAVRIDNGQWKLLDACWGAGVVQGPGLPYKKQFNPAMFTDSNDEFGLRHFPSNRSHFFRDDGRPEITWEEYILGNPNSPLSAEQPTIFGDAQNHSIGERSFRPAAKQISIHDPSPLRFQFNLICEHWTLEHHTRAKPGLFLLMVHGLDGRQDDRLPFTHVRGSGPGGGGDFWYVDVPNAKILGAPGQKLAIAVLTSFGDRKDARGVTAEEYRQQVGRVGMAWAYIAEWQLV
polymerization of casein (SDS-PAGE, Coomassie blue staining): in the presence of the purified or unpurified 3×HA-6His tag fusion protein, polymerization of casein was observed
